In series [1] the target is T1, recombinant C. albicans ACPg (CaO19.8439), pET30 fusion protein.
T1 chain: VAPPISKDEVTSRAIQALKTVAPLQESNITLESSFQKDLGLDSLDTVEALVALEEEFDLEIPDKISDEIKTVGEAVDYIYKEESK

The target in series [2] is T2, recombinant A. fumigatus ACP (acyl carrier protein), truncated form, pET30 fusion protein.
T2 chain: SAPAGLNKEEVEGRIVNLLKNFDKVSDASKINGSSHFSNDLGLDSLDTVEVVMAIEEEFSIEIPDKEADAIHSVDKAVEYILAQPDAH

For series [3], the target named is T3, recombinant C. albicans ACPe (CaO19.9975), pET30 fusion protein.
T3 chain: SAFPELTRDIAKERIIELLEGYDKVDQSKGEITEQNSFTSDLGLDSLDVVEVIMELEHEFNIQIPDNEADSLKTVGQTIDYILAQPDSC

B1: recombinant C. albicans PPTB (CaO19.4812), expressed from pET43.1 (protein)
chain: MPKVGTVLGIGVDIVNSVRFERLLTAKSTSFGTRLSKRILHPEHELPLFQQMHSQRQAQYLTGSWAAKEALFKTLDLNSQKEFNFNQWYRFHDSNGKPFIWNDRYKLSDEEFHLSISHDDSLVIATVLRQKVYQI
As to B1, the “pantetheinylation of ACP with CoA-Bodipy TMR, SDS-PAGE gel under UV light” value is “The C. albicans PPTB pantetheinylated ACPg strongly” in series [1]; “ACPe and the A. fumigatus ACP were pantetheinylated weakly” in series [2]; “ACPe and the A. fumigatus ACP were pantetheinylated weakly” in series [3]. The “PPTB activity assay with ACP as substrate” value in series [2] was “Assays for C. albicans PPTB activity using A. fumigatus ACP as a substrate gave a poor signal”.

B2: recombinant A. fumigatus PPTB (phosphopantetheinyl transferase B), PPTB-NusA fusion protein (protein)
chain: MKLIPFPYPLNIGTDVVHLPRILRLINRPDYFHRFTRRILHEQEQRDFRTRFSLPPPSSGAEKTGLNPITPDMARWLAGRFAAKEAARKAAPAGASSLGWKDVIVRVGEADKGRPEIVYLDPMGCGETGGGRVGKLSISHDGDYVVATVLAAG
B2: the “pantetheinylation of ACP with CoA-Bodipy TMR, SDS-PAGE gel under UV light” value in series [1] was “The A. fumigatus PPTB was able to pantetheinylate both A. fumigatus ACP and ACPg”; in series [2], “The A. fumigatus PPTB was able to pantetheinylate both A. fumigatus ACP and ACPg”; in series [3] it was “whereas ACPe was pantetheinylated weakly”. In addition, the “labelling of ACP with CoA-Bodipy TMR, resolved on SDS-PAGE gel” value in series [2] was “recombinant PPTB was able to label recombinant ACP (resolved on SDS-PAGE gel) in the presence of magnesium ions and CoA-Bodipy TMR”.
